Test results taken from US20200277346A1 (GOVERNING COUNCIL OF THE UNIVERSITY OF TORONTO, published 2020).

B1: HERC6 HECT domain (enzyme, human, UniProt Q8IVU3 650-1022, looked up)
chain: KAYMLMHETILQKKDEFPPSPRFILRVRRSRLVKDALRQLSQAEATDFCKVLVVEFINEICPESGGVSSEFFHCMFEEMTKPEYGMFMYPEMGSCMWFPAKPKPEKKRYFLFGMLCGLSLFNLNVANLPFPLALYKKLLDQKPSLEDLKELSPRLGKSLQEVLDDAADDIGDALCIRFSIHWDQNDVDLIPNGISIPVDQTNKRDYVSKYIDYIFNVSVKAVYEEFQRGFYRVCEKEILRHFYPEELMTAIIGNTDYDWKQFEQNSKYEQGYQKSHPTIQLFWKAFHKLTLDEKKKFLFFLTGRDRLHARGIQKMEIVFRCPETFSERDHPTSITCHNILSLPKYSTMERMEEALQVAINNNRGFVSPMLTQS
notes: domain: HECT domain; His- and Avi-tagged for selection and ELISA; also called H6
B2: HECTD1 HECT domain (enzyme, human, UniProt Q9ULT8 2151-2610, looked up)
chain: IHADRKSVLEVEFLGEEGTGLGPTLEFYALVAAEFQRTDLGAWLCDDNFPDDESRHVDLGGGLKPPGYYVQRSCGLFTAPFPQDSDELERITKLFHFLGIFLAKCIQDNRLVDLPISKPFFKLMCMGDIKSNMSKLIYESRGDRDLHCTESQSEASTEEGHDSLSVGSFEEDSKSEFILDPPKPKPPAWFNGILTWEDFELVNPHRARFLKEIKDLAIKRRQILSNKGLSEDEKNTKLQELVLKNPSGSGPPLSIEDLGLNFQFCPSSRIYGFTAVDLKPSGEDEMITMDNAEEYVDLMFDFCMHTGIQKQMEAFRDGFNKVFPMEKLSSFSHEEVQMILCGNQSPSWAAEDIINYTEPKLGYTRDSPGFLRFVRVLCGMSSDERKAFLQFTTGCSTLPPGGLANLHPRLTVVRKVDATDASYPSVNTCVHYLKLPEYSSEEIMRERLLAATMEKGFHLN
notes: domain: HECT domain; His- and Avi-tagged for selection and ELISA
B3: EDD1 HECT domain (enzyme, human, UniProt O95071 2462-2799, looked up)
chain: LDLGLVDSSEKVQQENRKRHGSSRSVVDMDLDDTDDGDDNAPLFYQPGKRGFYTPRPGKNTEARLNCFRNIGRILGLCLLQNELCPITLNRHVIKVLLGRKVNWHDFAFFDPVMYESLRQLILASQSSDADAVFSAMDLAFAIDLCKEEGGGQVELIPNGVNIPVTPQNVYEYVRKYAEHRMLVVAEQPLHAMRKGLLDVLPKNSLEDLTAEDFRLLVNGCGEVNVQMLISFTSFNDESGENAEKLLQFKRWFWSIVEKMSMTERQDLVYFWTSSPSLPASEEGFQPMPSITIRPPDDQHLPTANTCISRLYVPLYSSKQILKQKLLLAIKTKNFGFV
notes: as for B2
B4: HACE1 HECT domain (enzyme, human, UniProt Q8IYU2 529-909, looked up)
chain: EWFYEHLHSGQPDSDMVHRPVNENDILLVHRDSIFRSSCEVVSKANCAKLKQGIAVRFHGEEGMGQGVVREWFDILSNEIVNPDYALFTQSADGTTFQPNSNSYVNPDHLNYFRFAGQILGLALNHRQLVNIYFTRSFYKHILGIPVNYQDVASIDPEYAKNLQWILDNDISDLGLELTFSVETDVFGAMEEVPLKPGGGSILVTQNNKAEYVQLVTELRMTRAIQPQINAFLQGFHMFIPPSLIQLFDEYELELLLSGMPEIDVSDWIKNTEYTSGYEREDPVIQWFWEVVEDITQEERVLLLQFVTGSSRVPHGGFANIMGGSGLQNFTIAAVPYTPNLLPTSSTCINMLKLPEYPSKEILKDRLLVALHCGSYGYTMA
notes: as for B2
B5: HERC2 HECT domain (enzyme, human, UniProt O95714 4412-4834, looked up)
chain: RQHGPVVELNRIQVKRSRSKGGLAGPDGTKSVFGQMCAKMSSFGPDSLLLPHRVWKVKFVGESVDDCGGGYSESIAEICEELQNGLTPLLIVTPNGRDESGANRDCYLLSPAARAPVHSSMFRFLGVLLGIAIRTGSPLSLNLAEPVWKQLAGMSLTIADLSEVDKDFIPGLMYIRDNEATSEEFEAMSLPFTVPSASGQDIQLSSKHTHITLDNRAEYVRLAINYRLHEFDEQVAAVREGMARVVPVPLLSLFTGYELETMVCGSPDIPLHLLKSVATYKGIEPSASLIQWFWEVMESFSNTERSLFLRFVWGRTRLPRTIADFRGRDFVIQVLDKYNPPDHFLPESYTCFFLLKLPRYSCKQVLEEKLKYAIHFCKSIDTDDYARIALTGEPAADDSSDDSDNEDVDSFASDSTQDYLTGH
notes: domain: HECT domain; His- and Avi-tagged for selection and ELISA; also called H2
B6: UBE3C HECT domain (enzyme, human, UniProt Q15386 693-1083, looked up)
chain: VPFEERVKIFQRLIYADKQEVQGDGPFLDGINVTIRRNYIYEDAYDKLSPENEPDLKKRIRVHLLNAHGLDEAGIDGGGIFREFLNELLKSGFNPNQGFFKTTNEGLLYPNPAAQMLVGDSFARHYYFLGRMLGKALYENMLVELPFAGFFLSKLLGTSADVDIHHLASLDPEVYKNLLFLKSYEDDVEELGLNFTVVNNDLGEAQVVELKFGGKDIPVTSANRIAYIHLVADYRLNRQIRQHCLAFRQGLANVVSLEWLRMFDQQEIQVLISGAQVPISLEDLKSFTNYSGGYSADHPVIKVFWRVVEGFTDEEKRKLLKFVTSCSRPPLLGFKELYPAFCIHNGGSDLERLPTASTCMNLLKLPEFYDETLLRSKLLYAIECAAGFELS
notes: as for B2
B7: SMURF1 HECT domain (enzyme, human, UniProt Q9HCE7 374-757, looked up)
chain: YERDLVQKLKVLRHELSLQQPQAGHCRIEVSREEIFEESYRQIMKMRPKDLKKRLMVKFRGEEGLDYGGVAREWLYLLCHEMLNPYYGLFQYSTDNIYMLQINPDSSINPDHLSYFHFVGRIMGLAVFHGHYINGGFTVPFYKQLLGKPIQLSDLESVDPELHKSLVWILENDITPVLDHTFCVEHNAFGRILQHELKPNGRNVPVTEENKKEYVRLYVNWRFMRGIEAQFLALQKGFNELIPQHLLKPFDQKELELIIGGLDKIDLNDWKSNTRLKHCVADSNIVRWFWQAVETFDEERRARLLQFVTGSTRVPLQGFKALQGSTGAAGPRLFTIHLIDANTDNLPKAHTCFNRIDIPPYESYEKLYEKLLTAVEETCGFAVE
notes: domain: HECT domain; His- and Avi-tagged for selection and ELISA; also called S1
B8: HERC4 HECT domain (enzyme, human, UniProt Q5GLZ8 685-1057, looked up)
chain: AIDQAHRQNVSSLFLPVIESVNPCLILVVRRENIVGDAMEVLRKTKNIDYKKPLKVIFVGEDAVDAGGVRKEFFLLIMRELLDPKYGMFRYYEDSRLIWFSDKTFEDSDLFHLIGVICGLAIYNCTIVDLHFPLALYKKLLKKKPSLDDLKELMPDVGRSMQQLLDYPEDDIEETFCLNFTITVENFGATEVKELVLNGADTAVNKQNRQEFVDAYVDYIFNKSVASLFDAFHAGFHKVCGGKVLLLFQPNELQAMVIGNTNYDWKELEKNTEYKGEYWAEHPTIKIFWEVFHELPLEKKKQFLLFLTGSDRIPILGMKSLKLVIQSTGGGEEYLPVSHTCFNLLDLPKYTEKETLRSKLIQAIDHNEGFSLI
notes: domain: HECT domain; His- and Avi-tagged for selection and ELISA; also called H4
B9: HUWE1 HECT domain (enzyme, human, UniProt Q7Z6Z7 3993-4374, looked up)
chain: DFDVKRKYFRQELERLDEGLRKEDMAVHVRRDHVFEDSYRELHRKSPEEMKNRLYIVFEGEEGQDAGGLLREWYMIISREMFNPMYALFRTSPGDRVTYTINPSSHCNPNHLSYFKFVGRIVAKAVYDNRLLECYFTRSFYKHILGKSVRYTDMESEDYHFYQGLVYLLENDVSTLGYDLTFSTEVQEFGVCEVRDLKPNGANILVTEENKKEYVHLVCQMRMTGAIRKQLAAFLEGFYEIIPKRLISIFTEQELELLISGLPTIDIDDLKSNTEYHKYQSNSIQIQWFWRALRSFDQADRAKFLQFVTGTSKVPLQGFAALEGMNGIQKFQIHRDDRSTDRLPSAHTCFNQLDLPAYESFEKLRHMLLLAIQECSEGFGLA
notes: as for B2
B10: HECW2 HECT domain (enzyme)
chain: not shown
notes: as for B2
B11: HECW1 HECT domain (enzyme)
chain: not shown
notes: as for B2
B12: HERC1 HECT domain (enzyme, human, UniProt Q15751 4460-4861, looked up)
chain: IGKTMVQGKNYGPQITVKRISTRGRKCKPIFVQIARQVVKLNASDLRLPSRAWKVKLVGEGADDAGGVFDDTITEMCQELETGIVDLLIPSPNATAEVGYNRDRFLFNPSACLDEHLMQFKFLGILMGVAIRTKKPLDLHLAPLVWKQLCCVPLTLEDLEEVDLLYVQTLNSILHIEDSGITEESFHEMIPLDSFVGQSADGKMVPIIPGGNSIPLTFSNRKEYVERAIEYRLHEMDRQVAAVREGMSWIVPVPLLSLLTAKQLEQMVCGMPEISVEVLKKVVRYREVDEQHQLVQWFWHTLEEFSNEERVLFMRFVSGRSRLPANTADISQRFQIMKVDRPYDSLPTSQTCFFQLRLPPYSSQLVMAERLRYAINNCRSIDMDNYMLSRNVDNAEGSDTDY
notes: domain: HECT domain; His- and Avi-tagged for selection and ELISA; also called H1
B13: KIAA0317 HECT domain (enzyme, human, UniProt O15033 436-823, looked up)
chain: SETFQDKVNFFQRELRQVHMKRPHSKVTLKVSRHALLESSLKATRNFSISDWSKNFEVVFQDEEALDWGGPRREWFELICKALFDTTNQLFTRFSDNNQALVHPNPNRPAHLRLKMYEFAGRLVGKCLYESSLGGAYKQLVRARFTRSFLAQIIGLRMHYKYFETDDPEFYKSKVCFILNNDMSEMELVFAEEKYNKSGQLDKVVELMTGGAQTPVTNANKIFYLNLLAQYRLASQVKEEVEHFLKGLNELVPENLLAIFDENELELLMCGTGDISVSDFKAHAVVVGGSWHFREKVMRWFWTVVSSLTQEELARLLQFTTGSSQLPPGGFAALCPSFQIIAAPTHSTLPTAHTCFNQLCLPTYDSYEEVHRMLQLAISEGCEGFGML
notes: as for B2

These binders were tested against T1, Wild Type Ub (human, UniProt P0CG48 1-76) (assay: ELISA on immobilized HECT domain).
T1 construct: native (tag-free) WT ubiquitin was the analyte in BLI; also called wt Ub; WT ubiquitin
Experimental: Proteins in study were immobilized on 384-well MaxiSorp plates (Thermo Scientific 12665347) by adding 30 μL of 1 μM proteins for overnight incubation at 4° C. Phage and protein ELISA against immobilized proteins was performed as described (Ernst et al., 2013). Binding of phage was detected using anti-M13-HRP antibody (GE Healthcare 27942101) and binding of FLAG-tagged UbVs was detected using anti-FLAG-HRP antibody (Sigma-Aldrich A8592). […] EC₅₀ values were calculated using the GraphPad Prism software with the built-in equation formula (non-linear regression curve).

Binding result, no binding:
B1
B2
B3
B4
B5
B6
B7
B8
B9
B10
B11
B12
B13
